Paper PMC9563714

Target: T1, Vfr (Pseudomonas aeruginosa UCBPP-PA14) (UniProt P55222)
T1 sequence: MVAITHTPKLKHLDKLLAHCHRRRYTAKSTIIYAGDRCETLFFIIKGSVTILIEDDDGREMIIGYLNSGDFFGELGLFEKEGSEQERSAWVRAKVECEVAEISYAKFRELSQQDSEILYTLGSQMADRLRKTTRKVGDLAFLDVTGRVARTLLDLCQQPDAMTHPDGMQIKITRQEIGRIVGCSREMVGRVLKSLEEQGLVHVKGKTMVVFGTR
Experiment: EMSA

## TCTGACCCATCCGCGCGACTGGCCCCCGGGCCGGTCGCTCCCCCGGGACGACCGTCGGTCCCGGATCGGCGCGCTTTCCTGAACTATCGATCAGCTGTCACTGGCCGCCGCGCAAACGCTTGGTTAAGATTCCGCCAGCAACCTGGCCACCCGCCATTCCCCAGGCGGAAAGCTCACGAGGCCGAGCCGGGACGAAAATACACAGGGATCCTCTCCAGCGCATG (double strand) [PcyaB]
  binding: no binding
